The source of these data is publication PMC3285596 (PLoS Pathogens, 2012).

The target of this assay is T1, STAT1_(1–683), truncated, unphosphorylated human STAT1 (human, UniProt P42224 1-683).
T1 construct: also called unphosphorylated STAT1_(1–683); not shown: HA, C-terminal, kept
T1 sequence (looked up): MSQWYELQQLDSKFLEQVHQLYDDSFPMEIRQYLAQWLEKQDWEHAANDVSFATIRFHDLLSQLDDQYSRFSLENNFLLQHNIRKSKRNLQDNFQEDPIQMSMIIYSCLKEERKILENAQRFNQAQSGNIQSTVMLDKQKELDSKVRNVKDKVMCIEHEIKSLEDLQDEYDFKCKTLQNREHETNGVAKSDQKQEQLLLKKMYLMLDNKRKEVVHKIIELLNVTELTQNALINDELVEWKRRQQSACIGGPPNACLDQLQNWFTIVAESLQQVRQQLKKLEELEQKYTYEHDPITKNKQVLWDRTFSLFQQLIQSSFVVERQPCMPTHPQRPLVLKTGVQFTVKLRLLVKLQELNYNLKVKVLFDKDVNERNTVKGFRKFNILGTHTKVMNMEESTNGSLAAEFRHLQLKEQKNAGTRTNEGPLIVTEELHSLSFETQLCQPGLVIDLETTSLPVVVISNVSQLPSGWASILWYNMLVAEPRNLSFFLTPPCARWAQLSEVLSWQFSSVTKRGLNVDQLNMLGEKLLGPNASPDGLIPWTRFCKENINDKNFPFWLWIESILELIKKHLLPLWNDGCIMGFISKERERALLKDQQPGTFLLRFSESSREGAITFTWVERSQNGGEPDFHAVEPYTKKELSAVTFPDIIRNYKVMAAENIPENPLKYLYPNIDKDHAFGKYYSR
Briefly: ELISA. The note with it: both partners purified. (An ELISA detects its analyte on a solid surface through an enzyme-linked reagent.)

B1: Ebola virus (Zaire) VP24 residues 1-233 (EBOV_(1–233)) (domain or fragment)
chain: MAKATGRYNLISPKKDLEKGVVLSDLCNFLVSQTIQGWKVYWAGIEFDVTHKGMALLHRLKTNDFAPAWSMTRNLFPHLFQNPNSTIESPLWALRVILAAGIQDQLIDQSLIEPLAGALGLISDWLLTTNTNHFNMRTQRVKEQLSLKMLSLIRSNILKFINKLDALHVVNYNGLLSSIEIGTQNHTIIITRTNMGFLVELQEPDKSAMNRMKPGPAKFSLLHESTLKAFTQG
Take B1: the binding result is listed as “binds”.
